# Values of other authors in US7557183B2, “Polyethylene glycol linked GLP-1 compounds” (Eli Lilly and Company, priority 2003, dated 2009).
# Details: in vivo
substance,measurement,value
"GLP-1(7-37): native truncated GLP-1 peptide, SEQ ID NO: 1",serum half-life,3 to 5 min
